{"source": "patent US20140234868A1", "about": "“USE FOR GLYCOLIPOPROTEIN GINTONIN, ISOLATED AND IDENTIFIED FROM GINSENG, AS A NATURAL MEDICAL-PLANT DERIVED LIGAND” (KONKUK UNIVERSITY INDUSTRIAL COOPERATION CORP., priority 2011, published 2014)", "molecules": {"B1": {"name": "gintonin: ginseng-derived glycolipoprotein; structural protein of ginseng major latex-like protein (MLP151) and ribonuclease-like storage proteins; crude gintonin used in tests (protein)", "chain 1": "MGLTGKLICQTGIKSDGDVFHELFGTRPHHVPNITPANIQGCDLHEGEFGKVGSVVIWNYSIDGNAMIAKEEIVAIDEEDKSVTFKVVEGHLFEEFKSIVFSVHVDTKGEDNLVTWSIDYEKLNESVKDPTSYLDFLLSVTRDIEAHHLPK", "chain 2": "RSDYPWAMFALRLQWPAGFCEVNNACDTKSLLNTFTIHGLYPYNAKGTPALYCDGTAFDVNSVSDFLAEMHLAWPSHETNTEDIQFWEHEWKKHGRCSEALLKQTDYFRTALAFRKAFDIVGLLNQEGIYPNNDLYRPKMIKEAIKKHLNAVPEIDFTKNENSEYVLTDINVCVNQQATRFVDCPTDDATDDYRLKFVRLPSKMKFADPRTNSII"}}, "key": {"[1]": {"tested_on": "NMDA receptors (NR1 and NR2)", "assay": "NMDA receptor activity in Xenopus oocytes, two-electrode voltage clamp", "type": "cell-based", "method_in_brief": "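Xenopus oocytes injected with NR1 and NR2 cDNA (100 ng/40 nl) and kept 4-5 days at 18 °C in ND96. Two-electrode voltage clamp at −60 mV in Mg2+-free ND96, pH 7.6. Currents evoked by […].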"}, "[2]": {"tested_on": "mutant NMDA receptor (S1312A)", "assay": "Gintonin-induced activation of mutant NMDA receptor S1312A in oocytes", "type": "cell-based", "description": "Two-electrode voltage-clamp recordings were obtained from individual oocytes placed in a small Plexiglas net chamber (5 ml). Electrophysiological experiments were performed using microelectrodes filled with 3 M KCl (resistance of 0.2-0.7 MΩ) and an Oocyte Clamp amplifier (OC-725C; Warner Instrument, Hamden, Conn.). For physiological recordings of NMDA receptor activity, oocytes were first perfused with Mg^2+-free ND96 (mM: 96 NaOH, 2 KOH, 0.3 CaCl2, 5 HEPES pH 7.6 with methanesulfonic acid). Then, the oocytes were clamped at −60 mV holding potential, followed by recoding NMDA currents (induced by administering […]) (Zheng et al., J Neurosci. 17, 8676-8686, 1997; Chang and Kuo, J Neurosci. 28, 1546-1556, 2008).\nThus, it is understood that gintonin stimulates PKC to phosphorylate the NMDA receptor at a specific site (S1308), and thus that gintonin-induced NMDA receptor activation is associated with PKC activity."}, "LPA6 receptor": {"molecular_target": "T1, LPA6 receptor (Homo sapiens, UniProt P43657)", "T1 construct": "host or cells: B103 rat neuroblastoma cells", "T1 sequence (P43657 1-344)": "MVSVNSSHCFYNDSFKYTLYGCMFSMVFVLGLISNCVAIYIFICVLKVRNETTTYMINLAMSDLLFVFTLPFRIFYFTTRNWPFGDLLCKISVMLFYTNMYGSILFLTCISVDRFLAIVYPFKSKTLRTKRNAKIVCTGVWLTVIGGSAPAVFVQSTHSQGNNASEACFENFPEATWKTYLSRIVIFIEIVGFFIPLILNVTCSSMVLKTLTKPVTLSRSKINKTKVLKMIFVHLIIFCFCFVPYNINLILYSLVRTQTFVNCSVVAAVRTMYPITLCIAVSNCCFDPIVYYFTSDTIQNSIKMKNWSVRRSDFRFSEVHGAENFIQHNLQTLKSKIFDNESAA", "assay": "Intracellular cAMP level in LPA6-expressing B103 cells", "type": "cell-based", "description": "After treatment with gintonin, B103 cells expressing LPA3 or LPA6 receptor were examined for change in intracellular cAMP level."}, "rat adrenal gland": {"tested_on": "rat adrenal gland", "assay": "Catecholamine secretion from perfused rat adrenal gland", "description": "Male rats (Sprague-Dawley, each weighing 200 to 300 g) was anesthetized by an to intraperitoneal injection of thiopental sodium (50 mg/kgm), and the adrenal gland was excised from the rats according to the method of Wakade and Woo et al. (Wakade, J Physiol. 313, 463-480, 1981; Woo et al., Korean J Physiol Pharmacol., 12, 155-164, 2008).\nBriefly, a cannula was inserted so as to perfuse the adrenal gland, as illustrated in FIG. 18. During the cannula insertion, heparin (400 IU/ml) was infused into the vena cava in order to prevent blood coagulation. Then, the adrenal gland was isolated from the body, and transferred to a leucite chamber which was kept at 37±1° C.\nThe adrenal gland was perfused at a rate of 0.33 ml/min with the aid of a peristaltic pump (ISCO® pump, WIZ Co. U.S.A.). The perfusion solution was a Krebs-bicarbonate solution: (mM) NaCl, 118.4; KCl, 4.7; CaCl2, 2.5; MgCl2, 1.18; NaHCO3, 25; KH2PO4, 1.2; glucose, 11.7.\nThe perfusion solution was continuously aerated with 95% O2+5% CO2 gas, and was maintained to have pH 7.4-7.5. In addition, the perfusion solution was supplemented with EDTA ([…]) and ascorbic acid ([…]) to prevent the oxidation of catecholamines (Woo et al., Korean J Physiol Pharmacol., 12, 155-164, 2008).\nGintonin (1˜10 μg/ml) or cyclopiazonic acid (10 μM) was applied by perfusion for 4 min while acetylcholine (5.32 mM) was infused at a dose of 50 μl using a three-way stopcock.\nPrior to treatment with a material stimulating catecholamine secretion, the adrenal gland was left until the secretion of catecholamine in the absence of stimuli reached a constant level, that is, a background or basal level, which typically took 5˜10 min. Then, the adrenal gland was perfused with gintonin or other drugs, and perfusates effluent from the adrenal gland were collected at regular intervals of 4 min, and the amount of catecholamines released by drug stimulation was calculated by subtracting the background or basal level from measurements (Woo et al., Korean J Physiol Pharmacol., 12, 155-164, 2008).\nIn order to examine the effect of gintonin on the spontaneous secretion of catecholamine and on the stimulus-induced secretion of catecholamine, the adrenal gland was perfused with a Krebs solution containing gintonin alone or in combination with other drugs, after which the perfusates were collected until the amount of secreted catecholamine reached the background level. The collected adrenal perfusates were stored in tubes maintained at 4° C.\nCatecholamine in the perfusates was quantified using a fluorospectrophotometer (Kontron Co., Milano, Italy) according to the methods of Anton and Sayre, and Lim. In this regard, each perfusate amounted to 0.2 ml (Woo et al., Korean J Physiol Pharmacol., 12, 155-164, 2008)."}}, "data": [{"molecule": "Cc1noc(-c2ccc(CSCCC(=O)O)cc2)c1NC(=O)OC(C)c1ccccc1Cl", "note": "(stereo not drawn) [Kil6425]", "values": [{"measurement": "effect on NMDA-induced inward current", "setting": "[1]; Kil6425 10 μM, U73122 1 μM, 2-APB 100 μM, BAPTA 100 μM 3 h", "value": "had no influences on NMDA-NMDA receptor activation"}, {"measurement": "effect on gintonin-induced NMDA receptor activation", "setting": "[1]; gintonin 1 μg/ml, Kil6425 10 μM, U73122, U73343 1 μM, 2-APB 100 μM, BAPTA 100 μM 3 h, genistein 10 μM, PP2, PP3 30 μM", "value": "blocked gintonin-induced NMDA receptor activation"}]}, {"molecule": "B1", "values": [{"measurement": "gintonin-induced NMDA receptor activation", "setting": "[2]", "value": "maintained gintonin-induced NMDA receptor activation"}, {"measurement": "ED50, NMDA receptor-mediated inward currents", "setting": "[1]; NMDA receptor-expressing Xenopus oocytes", "value": "0.49 ± 0.10", "unit": "µg/mL"}, {"measurement": "change in intracellular cAMP level", "setting": "LPA6 receptor", "value": "no influences on intracellular cAMP level"}, {"measurement": "catecholamine secretion after acetylcholine", "setting": "rat adrenal gland; gintonin 1 μg/ml, pre-treatment with 5.32 mM acetylcholine", "value": "incapacitated the effect"}, {"measurement": "catecholamine secretion after acetylcholine", "setting": "rat adrenal gland; gintonin 3 μg/ml, 5.32 mM acetylcholine", "value": "continually promote the secretion of catechlamine"}, {"measurement": "catecholamine secretion after acetylcholine", "setting": "rat adrenal gland; gintonin 10 μg/ml, 5.32 mM acetylcholine", "value": "stimulates the secretion of catecholamine in the early stage, but could not induce the secretion since then"}, {"measurement": "catecholamine secretion", "setting": "rat adrenal gland; gintonin 1~10 μg/ml, perfusion at 15-min intervals", "value": "continually secrete catecholamine in a dose-dependent manner"}]}]}
